Results reported in patent publication US20260308269 (published 2026).
Residue numbers refer to the chain shown, from its start. Like-named read-outs stand apart in the source and are kept apart here.

T1: human TfR apical domain (human)
T1 chain: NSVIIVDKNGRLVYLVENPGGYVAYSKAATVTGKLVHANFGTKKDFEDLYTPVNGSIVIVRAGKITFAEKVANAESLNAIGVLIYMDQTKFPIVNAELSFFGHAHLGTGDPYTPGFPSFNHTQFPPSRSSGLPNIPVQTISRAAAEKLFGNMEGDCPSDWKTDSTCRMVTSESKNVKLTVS

T2: human CD98hc (human)
T2 chain: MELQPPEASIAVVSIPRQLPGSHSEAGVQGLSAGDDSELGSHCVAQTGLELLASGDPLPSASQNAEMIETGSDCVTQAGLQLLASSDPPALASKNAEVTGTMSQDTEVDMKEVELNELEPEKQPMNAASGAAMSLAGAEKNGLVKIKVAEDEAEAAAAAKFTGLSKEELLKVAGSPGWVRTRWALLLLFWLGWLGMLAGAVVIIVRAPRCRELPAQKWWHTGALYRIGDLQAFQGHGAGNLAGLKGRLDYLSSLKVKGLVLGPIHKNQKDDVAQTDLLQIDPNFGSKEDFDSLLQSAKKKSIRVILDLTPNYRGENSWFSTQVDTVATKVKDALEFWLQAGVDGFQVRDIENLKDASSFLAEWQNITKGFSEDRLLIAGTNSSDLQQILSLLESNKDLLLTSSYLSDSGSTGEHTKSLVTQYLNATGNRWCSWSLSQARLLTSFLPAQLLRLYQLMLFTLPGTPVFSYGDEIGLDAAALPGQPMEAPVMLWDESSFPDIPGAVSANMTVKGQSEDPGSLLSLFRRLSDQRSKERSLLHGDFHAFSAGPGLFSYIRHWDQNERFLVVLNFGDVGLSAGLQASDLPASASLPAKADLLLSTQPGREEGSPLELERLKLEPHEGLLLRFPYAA

B1: 42.2.3-1H (protein)
chain: APELLGGPSVFLFPPKPKDTLMISRTPEVTCVVVDVSHEDPEVKFNWYVDGVEVHNAKTKPREEQYNSTYRVVSVLTVLHQDWLNGKEYKCKVSNKALPAPIEKTISKAKGQPREPQVYTLPPSRDELTKNQVSLTCLVKGFYPSDIAVEWFYGNAKETNYKTTPPVLDSDGSFFLYSKLTVDKSRWQQGNLFACEVMHEALHNHYTYKLLSLSPGK
B2: 42.8.196 (protein)
chain: B1 chain with G154E, N155A, A156Q, E158L, T159N
B3: 42.8.80 (protein)
chain: B1 chain with Y153S, G154E, N155G, A156S
B4: 6.5.11.5.42.1 (protein)
chain: B1 chain with Y153S, N155G
B5: 42.2.19 (protein)
chain: B1 chain with G154D, N155D, A156S, E158L, Q189P, G190R, N191G, S212G, L213E
B6: 42.8.15 (protein)
chain: B1 chain with Y153S, N155A, A156Q, T159S
B7: 42.8.17 (protein)
chain: B1 chain with Y153S, N155A, A156Q, E158L
B8: LLB2-10-8-d6 (protein)
chain: APELLGGPSVFLFPPKPKDTLMISRTPEVTCVVVDVSHEDPEVKFNWYVDGVEVHNAKTKPREEQYNSTYRVVSVLTVLHQDWLNGKEYKCKVSNKALPAPIEKTISKAKGQPREPQVYTLPPSRDELTKNQVSLTCLVKGFYPSDIAVLWNSRFVLENNYKTTPPVLDSDGSFFLYSKLTVDKSRWQQGNVFACNVYHEALHNHYTFKNLALSPGK
B9: LLB2-37 (protein)
chain: B8 chain with R154Q, V156H, V192I, A212L
B10: LLB2.10.8.14.3 (protein)
chain: B8 chain with N191E, V192I, Y206R, A212R
B11: LLB2.10.8.10.3 (protein)
chain: B8 chain with N191E, V192I, A212R
B12: LLB2-10-8 (protein)
chain: B8 chain with N191E, V192I
B13: LLB2-10-8-d12 (protein)
chain: B8 chain with R154H, F155Y, V156E
B14: LLB2-10-8.d28 (protein)
chain: B8 chain with N152S, F155Y
B15: LLB1-3-16 (protein)
chain: APELLGGPSVFLFPPKPKDTLMISRTPEVTCVVVDVSHEDPEVKFNWYVDGVEVHNAKTKPREEQYNSTYRVVSVLTVLHQDWLNGKEYKCKVSNKALPAPIEKTISKAKGQPREPQVYTLPPSRDELTKNQVSLTCLVKGFYPSDIAVEWRTYKPYETNYKTTPPVLDSDGSFFLYSKLTVDKSRWQQGDIFVCDVLHEALHNHFTIKKLSLSPGK
B16: LLB1-3-16-2 (protein)
chain: B15 chain with L198M
B17: CH3C.35.23.2 (protein)
chain: PCPAPELLGGPSVFLFPPKPKDTLMISRTPEVTCVVVDVSHEDPEVKFNWYVDGVEVHNAKTKPREEQYNSTYRVVSVLTVLHQDWLNGKEYKCKVSNKALPAPIEKTISKAKGQPREPQVYTLPPSRDELTKNQVSLWCLVKGFYPSDIAVEWESYGTEWANYKTTPPVLDSDGSFFLYSKLTVTKEEWQQGFVFSCSVMHEALHNHYTQKSLSLSPGK
B18: 35.d1.17 (protein)
chain: ASTKGPSVFPLAPSSKSTSGGTAALGCLVKDYFPEPVTVSWNSGALTSGVHTFPAVLQSSGLYSLSSVVTVPSSSLGTQTYICNVNHKPSNTKVDKKVEPKSCDKTHTCPPCPAPELLGGPSVFLFPPKPKDTLMISRTPEVTCVVVDVSHEDPEVKFNWYVDGVEVHNAKTKPREEQYNSTYRVVSVLTVLHQDWLNGKEYKCKVSNKALPAPIEKTISKAKGQPREPQVYTLPPSRDELTKNQVSLTCLVKGFYPSDIAVEWESFGTEWTNYKTTPPVLDSDGSFFLYSKLTVSKSEWQQGFVFSCSVMHEALHNHYTQKSLSLSPELQLEESCAEAQDGELDGLWTT
B19: 35.d1.15 (protein)
chain: B18 chain with F267Y, T272S, F304Y
B20: 35.d1.6 (protein)
chain: B18 chain with F267Y, N273S
B21: CH3C.1.35 (protein)
chain: B18 chain with F267Y, T272S, N273S, S296T
B22: 35.d1.5 (protein)
chain: B18 chain with F267Y, T269N, T272S, N273S
B23: 35.d1.1 (protein)
chain: B18 chain with F267Y, T269N, T272S, N273S, S296T
B24: 35.d1.16 (protein)
chain: B18 chain with T269N, T272S
B25: 35.d1.7 (protein)
chain: B18 chain with F267Y, T272S, N273S, F304Y
B26: 35.d1.2 (protein)
chain: B18 chain with F267Y, N273S, S296T
B27: 35.d1.22 (protein)
chain: B18 chain with F267Y, T269N, T272S, S298E
B28: 35.d1.4 (protein)
chain: B18 chain with T272S, N273S
B29: 35.d1.20 (protein)
chain: B18 chain with F267Y, T272V
B30: 35.d1.14 (protein)
chain: B18 chain with F267Y
B31: 35.d1.3 (protein)
chain: B18 chain with F267Y, T272S, N273S, S296T, F304Y
B32: 35.d1.23 (protein)
chain: B18 chain with F267Y, S298E
B33: 35.d1.24 (protein)
chain: B18 chain with F267Y, T272S, S298E, F304Y
B34: 35.d1.19 (protein)
chain: B18 chain with T272V, F304Y

Experiments:
Test in all cases: SPR
human TfR apical domain [1] = target: T1, human TfR apical domain
human CD98hc = target: T2, human CD98hc
human TfR apical domain [2] = target: T1, human TfR apical domain
human TfR apical domain [3] = target: T1, human TfR apical domain

Row | Binder | Kd (human TfR apical domain [3]) [nM] | other results
1 | B1 | – | Kd (human TfR apical domain [1]): 220 nM
2 | B2 | – | Kd (human TfR apical domain [1]): 924 nM
3 | B3 | – | Kd (human TfR apical domain [1]): 2380 nM
4 | B4 | – | Kd (human TfR apical domain [1]): 840 nM
5 | B5 | – | Kd (human TfR apical domain [1]): 80 nM
6 | B6 | – | Kd (human TfR apical domain [1]): 5960 nM
7 | B7 | – | Kd (human TfR apical domain [1]): 10400 nM
8 | B8 | – | Kd (human CD98hc): 550 nM
9 | B9 | – | Kd (human CD98hc): 610 nM
10 | B10 | – | Kd (human CD98hc): 20 nM
11 | B11 | – | Kd (human CD98hc): 43 nM
12 | B12 | – | Kd (human CD98hc): 170 nM
13 | B13 | – | Kd (human CD98hc): 2100 nM
14 | B14 | – | Kd (human CD98hc): 4200 nM
15 | B15 | – | Kd (human CD98hc): 32 nM
16 | B16 | – | Kd (human CD98hc): 175 nM
17 | B17 | – | Kd (human TfR apical domain [2]): 100 nM

Row | Binder | Kd (human TfR apical domain [3]) [nM] | other results
18 | B18 | 18800 | –
19 | B19 | 3600 | –
20 | B20 | 11200 | –
21 | B21 | 610 | –
22 | B22 | 13600 | –
23 | B23 | 6200 | –
24 | B24 | 35600 | –
25 | B25 | 3000 | –
26 | B26 | 4300 | –
27 | B27 | 5200 | –
28 | B28 | 1400 | –
29 | B29 | 3600 | –
30 | B30 | 11700 | –
31 | B31 | 1300 | –
32 | B32 | 3500 | –
33 | B33 | 1100 | –
34 | B34 | 16000 | –
